Test results: publication PMC9643438

Key:
Cys273 = Cys273 (UniProt position 273, KHPWICQRSTV); assay: chemical modification (iodoacetamide alkylation) with mass spectrometry readout; details: purified, reduced, native CaMKIIdelta; presence of Ca2+/calmodulin not stated
Cys290 = Cys290 (UniProt position 290, QETVDCLKKFN); assay: as above; details: purified, reduced, native CaMKIIdelta; presence of Ca2+/calmodulin not stated

Substance | pKa (Cys273) | pKa (Cys290)
Calcium/calmodulin-dependent protein kinase II delta (CaMKIIdelta), 'Cys273' mutant (Homo sapiens; C7S;C290S;C481S) | 7.4 | 
Calcium/calmodulin-dependent protein kinase II delta (CaMKIIdelta), 'Cys290' mutant (Homo sapiens; C7S;C273S;C481S) |  | 9.7
